What was measured:
[1] = molecular target: T1, PlyCA (heavy chain of the streptococcal C1 bacteriophage lysin PlyC) (streptococcal C1 bacteriophage, UniProt Q7Y3F1 2-465); experiment: native PAGE against SDS/PAGE (two bands, PlyCA and PlyCB); N-terminal sequencing of the native band gives both chains
T1 construct: One PlyCA for eight PlyCB in the holoenzyme (about 114 kDa by gel filtration); also called PlyC heavy chain; plyCA gene product
T1 sequence (looked up): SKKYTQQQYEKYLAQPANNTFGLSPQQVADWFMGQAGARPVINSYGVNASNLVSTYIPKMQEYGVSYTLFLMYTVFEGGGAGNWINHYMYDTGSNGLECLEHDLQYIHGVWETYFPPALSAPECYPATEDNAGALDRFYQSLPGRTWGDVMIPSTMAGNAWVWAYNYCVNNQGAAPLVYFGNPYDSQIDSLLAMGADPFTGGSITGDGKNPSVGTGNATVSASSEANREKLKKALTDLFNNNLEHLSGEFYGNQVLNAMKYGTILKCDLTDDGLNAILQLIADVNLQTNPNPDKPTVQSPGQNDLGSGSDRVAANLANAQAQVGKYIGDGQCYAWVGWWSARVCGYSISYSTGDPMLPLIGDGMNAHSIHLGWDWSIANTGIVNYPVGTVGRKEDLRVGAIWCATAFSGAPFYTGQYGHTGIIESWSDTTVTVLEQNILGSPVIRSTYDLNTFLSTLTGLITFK
Description: PlyC Consists of a Heavy Chain (PlyCA) and a Light Chain (PlyCB)—PlyC purified from C₁ bacteriophage lysates behaves as a homogeneous protein on native-gel electrophoresis (FIG. 1A). Moreover, this protein band is responsible for the lytic activity, as observed by formation of a clearing zone on an overlay of streptococci-embedded agarose (FIG. 1B). […] N-terminal sequencing of the PlyC heavy and light chains results in two unique sequences ([…] and […], respectively), and sequencing of the native band results in a dual sequence, which corresponds exactly to both chains.
Expression and Purification of the PlyC Clone—PlyC is induced with 0.5% arabinose overnight from XL1-blue/pBAD24::plyC cultures. Cells are washed in 20 mM phosphate buffer at pH 7.0 and are lysed with 20% wt/vol chloroform to yield crude PlyC. Alternatively, group C streptococci are infected with the C1 bacteriophage as previously described (Nelson et al., 2001), and phage-produced PlyC are isolated from the crude lysate. Purification of the phage-derived enzyme and the recombinant enzyme are identical to previously described methods (Nelson et al., 2001). Purified enzymes are routinely stored in PBS at 4° C. and are stable for several months. Purification of the individually expressed heavy and light chains use the same column-chromatography methods as the native enzyme. […]

[2] = molecular target: the molecule itself; experiment: gel filtration, with and without 0.1% SDS
[3] = molecular target: the molecule itself; experiment: Superose 12 gel filtration
Description: N-terminal Deletion—The Del-8 mutant lacks the first 8 N-terminal amino acids of PlyCB but retains full binding activity. Formation of a stable octamer is confirmed by comparing the elution profile of the Del-8 PlyCB mutant on a Superose 12 gel to Bio-Rad gel filtration standards. Accordingly, the N-terminal region can be completely deleted and not affect formation of the stable octamer. Given the non-structural role of this sequence, this region can be modified or engineered.

B1: PlyCB octamer (wild-type) (other)
chain: SKINVNVENVSGVQGFLFHTDGKESYGYRAFINGVEIGIKDIETVQGFQQIIPSINISKSDVEAIRKAMKK
notes: Ring of eight identical PlyCB monomers, about 64 kDa; the partner of PlyCA in the PlyC holoenzyme; also called octameric protein
B1: binds [1].

B2: PlyCB monomer (wild-type, light chain of the streptococcal C1 bacteriophage lysin PlyC) (other)
chain: B1 chain
notes: also called PlyC light chain; plyCB gene product
B2: binds [2].

B3: Del-8 PlyCB mutant (8 amino acid N-terminal deletion of PlyCB), monomer (other)
chain: NVSGVQGFLFHTDGKESYGYRAFINGVEIGIKDIETVQGFQQIIPSINISKSDVEAIRKAMKK
notes: Monomer, used for the entry on self-assembly into the octamer; also called N-terminal deletion variant of PlyCB
B3: binds [3].
